In patent US20160039896A1 (Stanford University, published 2016):
Changes are numbered by the printed parent chain. In names and notes the source's numbering stands.

B1: scVEGFrgd-7I (ligand)
chain: EVVKAMDVYQRSYCHPIETLVDIFQEYPDEIEYIFKPSCVPLMRCGGCCNDAGLECVPTEESNITMQIMRIKPHQGQHIGEMSFLQHNKCECRPKKDGSTSGSGKSSEGKGEVVKFMDVYQRSYCHPIETLVDIFQEYPDEIEYAFKPSCVPLMRCGGCCNDEGLECVPTEESNITMQIMRPSVRRGDSPASHIGEMSFLQHNKCECRPKKDTR
B2: scVEGFrgd-7H (ligand)
chain: EVVKAMDVYQRSYCHPIETLVDIFQEYPDEIEYIFKPSCVPLMRCGGCCNDAGLECVPTEESNITMQIMRIKPHQGQHIGEMSFLQHNKCECRPKKDGSTSGSGKSSEGKGEVVKFMDVYQRSYCHPIETLVDIFQEYPDEIEYAFKPSCVPLMRCGGCCNDEGLECVPTEESNITMQIMRPGGRGDSAYHIGEMSFLQHNKCECRPKKDTR
B3: scVEGFrgd-7P (ligand)
chain: B2 chain with G183A, G184S, A189P, Y190P
B4: scVEGFrgd-7B-K (ligand)
chain: EVVKAMDVYQRSYCHPIETLVDILQEYPDEIEYIFKPSCVPLMRCGGCCNDAGLECVPTEESNITMQIMRIKPYQGQHIGEMSFLQHNKCECRPKKDGSTSGSGKSSEGKGEVVRFMDVYQRSYCHPIETLVDIFQEYPDEIEYAFKPSCVPLMRCGGCCNHEGLECVPTEESNITMQIMRPHDRGDAGVHIGEMSFLQHNKCECRPKED
notes: built from the parts; F17A, E64A and I46A are kept because the RGD libraries were made from scVEGFmut
B5: scVEGFrgd-7B-C (ligand)
chain: B4 chain with R11G, D51N, D97G, R115K, Q178R, E209R
notes: as for B4
B6: scVEGFrgd-7B-A (ligand)
chain: B4 chain with I68V, Q75R, R115K, H162N, K208R, E209K
notes: as for B4

Tests used:
[1] = target: VEGFR2 and αvβ3 integrin on HUVEC; assay: flow cytometry titration on HUVEC (VEGFR2 and αvβ3 integrin), anti-FLAG detection
[2] = target: VEGFR2 and αvβ3 integrin on SVR angiosarcoma cells (murine); assay: flow cytometry titration on SVR murine angiosarcoma cells (VEGFR2 and αvβ3 integrin), anti-FLAG detection
[3] = target: VEGFR2 and αvβ3 integrin on HUVEC; assay: cell-based or functional assay
[4] = target: U87MG human glioblastoma cells; assay: flow cytometry titration on U87MG cells, anti-FLAG detection
[5] = target: T1, recombinant human VEGFR2 extracellular domain (human, UniProt P35968 20-764); assay: yeast surface display of individual clones, soluble VEGFR2
T1 construct: extracellular domain; Bought (Calbiochem); also called KDR; Flk-1
T1 sequence (P35968 20-764): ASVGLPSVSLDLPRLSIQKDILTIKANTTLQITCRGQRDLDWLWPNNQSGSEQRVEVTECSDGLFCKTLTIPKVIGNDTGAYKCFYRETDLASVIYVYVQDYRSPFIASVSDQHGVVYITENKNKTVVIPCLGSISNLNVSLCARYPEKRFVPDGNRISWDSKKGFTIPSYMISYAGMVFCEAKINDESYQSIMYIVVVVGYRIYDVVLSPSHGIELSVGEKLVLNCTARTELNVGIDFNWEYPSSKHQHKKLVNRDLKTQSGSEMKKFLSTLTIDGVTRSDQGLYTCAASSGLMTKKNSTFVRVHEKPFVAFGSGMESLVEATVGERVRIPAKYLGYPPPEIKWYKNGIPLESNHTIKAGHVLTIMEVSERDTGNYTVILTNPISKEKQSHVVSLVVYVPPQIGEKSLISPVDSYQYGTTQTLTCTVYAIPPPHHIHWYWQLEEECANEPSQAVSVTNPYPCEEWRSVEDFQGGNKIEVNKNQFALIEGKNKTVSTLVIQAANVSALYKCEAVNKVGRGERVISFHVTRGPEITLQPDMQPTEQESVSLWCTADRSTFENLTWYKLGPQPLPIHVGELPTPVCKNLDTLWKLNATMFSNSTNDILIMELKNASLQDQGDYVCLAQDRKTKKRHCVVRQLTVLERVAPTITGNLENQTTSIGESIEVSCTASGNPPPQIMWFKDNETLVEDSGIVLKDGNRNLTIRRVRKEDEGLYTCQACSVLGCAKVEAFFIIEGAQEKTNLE

Binder	Kd [1]	Kd [2]	inhibition of VEGF-induced autophosphorylation of VEGFR-2 in HUVEC, in the presence of vitronectin [3]	Kd [4]	binding result [5]
B1	6 nM	37 nM	80%	13.9 nM	–
B2	12 nM	18 nM	–	15.6 nM	–
B3	45 nM	31 nM	–	29 nM	–
B4	–	–	–	–	binds
B5	–	–	–	–	binds
B6	–	–	–	–	binds
